Numbered stars: 1 amine (or outer) side, 2 acyl side, 3 side chain; on linkers, the order of the positions; unused ones are H or OH. Bridge positions count the residues as written; N and C are the ends. Side chains are listed from the residue outwards. Ends that are not written are not given here. * marks the point of attachment. C20 diacid = O=C(O)CCCCCCCCCCCCCCCCCCC(=O)*; γGlu = O=C(O)[C@H](CCC(=O)[*:2])N[*:1]; AEEA = NCCOCCOCC(=O)O

T1: human calcitonin receptor (human, UniProt P30988 25-474)
T1 construct: whole, on cells; also called hCTR; hCT
T1 sequence (looked up): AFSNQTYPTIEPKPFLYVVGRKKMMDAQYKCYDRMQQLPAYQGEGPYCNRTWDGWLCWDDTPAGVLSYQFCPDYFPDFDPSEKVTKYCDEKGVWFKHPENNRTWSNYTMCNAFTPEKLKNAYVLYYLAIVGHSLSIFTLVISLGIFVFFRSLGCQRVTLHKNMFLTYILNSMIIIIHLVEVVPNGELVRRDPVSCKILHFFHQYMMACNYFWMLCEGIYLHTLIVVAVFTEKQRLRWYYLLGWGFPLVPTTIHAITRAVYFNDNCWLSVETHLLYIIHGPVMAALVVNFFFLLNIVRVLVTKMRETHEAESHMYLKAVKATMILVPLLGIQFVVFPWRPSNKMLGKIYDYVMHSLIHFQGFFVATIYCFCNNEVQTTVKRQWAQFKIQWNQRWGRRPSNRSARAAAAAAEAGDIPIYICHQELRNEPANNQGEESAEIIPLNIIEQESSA

B1: N^ε1-[2-[2-[2-[[(4S)-4-carboxy-4-(19-carboxynonadecanoylamino)butanoyl]amino]ethoxy]ethoxy]acetyl]-[Arg17,Pro21,Pro27,Arg34]-h-amylin (peptide)
peptide: K([AEEA-γGlu-C20 diacid])CNTATCATQRLANFLRHSSPNFGAIPSSTNVGRNTY-NH2
modifications: disulfide 2-7; N-terminus assumed
SMILES: CC[C@H](C)[C@H](NC(=O)[C@H](C)NC(=O)CNC(=O)[C@H](Cc1ccccc1)NC(=O)[C@H](CC(N)=O)NC(=O)[C@@H]1CCCN1C(=O)[C@H](CO)NC(=O)[C@H](CO)NC(=O)[C@H](Cc1c[nH]cn1)NC(=O)[C@H](CCCNC(=N)N)NC(=O)[C@H](CC(C)C)NC(=O)[C@H](Cc1ccccc1)NC(=O)[C@H](CC(N)=O)NC(=O)[C@H](C)NC(=O)[C@H](CC(C)C)NC(=O)[C@H](CCCNC(=N)N)NC(=O)[C@H](CCC(N)=O)NC(=O)[C@@H](NC(=O)[C@H](C)NC(=O)[C@@H]1CSSC[C@H](NC(=O)[C@@H](N)CCCCNC(=O)COCCOCCNC(=O)CC[C@H](NC(=O)CCCCCCCCCCCCCCCCCCC(=O)O)C(=O)O)C(=O)N[C@@H](CC(N)=O)C(=O)N[C@@H]([C@@H](C)O)C(=O)N[C@@H](C)C(=O)N[C@@H]([C@@H](C)O)C(=O)N1)[C@@H](C)O)C(=O)N1CCC[C@H]1C(=O)N[C@@H](CO)C(=O)N[C@@H](CO)C(=O)N[C@H](C(=O)N[C@@H](CC(N)=O)C(=O)N[C@H](C(=O)NCC(=O)N[C@@H](CCCNC(=N)N)C(=O)N[C@@H](CC(N)=O)C(=O)N[C@H](C(=O)N[C@@H](Cc1ccc(O)cc1)C(N)=O)[C@@H](C)O)C(C)C)[C@@H](C)O
notes: also called compound 78
B2: N^ε1-[2-[2-[2-[[(4S)-4-carboxy-4-(19-carboxynonadecanoylamino)butanoyl]amino]ethoxy]ethoxy]acetyl]-[His14,Arg17,Pro21,Pro27,His34]-h-amylin (peptide)
peptide: K([AEEA-γGlu-C20 diacid])CNTATCATQRLAHFLRHSSPNFGAIPSSTNVGHNTY-NH2
modifications: disulfide 2-7; N-terminus assumed
SMILES: CC[C@H](C)[C@H](NC(=O)[C@H](C)NC(=O)CNC(=O)[C@H](Cc1ccccc1)NC(=O)[C@H](CC(N)=O)NC(=O)[C@@H]1CCCN1C(=O)[C@H](CO)NC(=O)[C@H](CO)NC(=O)[C@H](Cc1c[nH]cn1)NC(=O)[C@H](CCCNC(=N)N)NC(=O)[C@H](CC(C)C)NC(=O)[C@H](Cc1ccccc1)NC(=O)[C@H](Cc1c[nH]cn1)NC(=O)[C@H](C)NC(=O)[C@H](CC(C)C)NC(=O)[C@H](CCCNC(=N)N)NC(=O)[C@H](CCC(N)=O)NC(=O)[C@@H](NC(=O)[C@H](C)NC(=O)[C@@H]1CSSC[C@H](NC(=O)[C@@H](N)CCCCNC(=O)COCCOCCNC(=O)CC[C@H](NC(=O)CCCCCCCCCCCCCCCCCCC(=O)O)C(=O)O)C(=O)N[C@@H](CC(N)=O)C(=O)N[C@@H]([C@@H](C)O)C(=O)N[C@@H](C)C(=O)N[C@@H]([C@@H](C)O)C(=O)N1)[C@@H](C)O)C(=O)N1CCC[C@H]1C(=O)N[C@@H](CO)C(=O)N[C@@H](CO)C(=O)N[C@H](C(=O)N[C@@H](CC(N)=O)C(=O)N[C@H](C(=O)NCC(=O)N[C@@H](Cc1c[nH]cn1)C(=O)N[C@@H](CC(N)=O)C(=O)N[C@H](C(=O)N[C@@H](Cc1ccc(O)cc1)C(N)=O)[C@@H](C)O)C(C)C)[C@@H](C)O
notes: also called compound 80
B3: N^ε1-[2-[2-[2-[[(4S)-4-carboxy-4-(19-carboxynonadecanoylamino)butanoyl]amino]ethoxy]ethoxy]acetyl]-[His14,Arg17,Pro21,Pro27,Arg34]-h-amylin (peptide)
peptide: K([AEEA-γGlu-C20 diacid])CNTATCATQRLAHFLRHSSPNFGAIPSSTNVGRNTY-NH2
modifications: disulfide 2-7; N-terminus assumed
SMILES: CC[C@H](C)[C@H](NC(=O)[C@H](C)NC(=O)CNC(=O)[C@H](Cc1ccccc1)NC(=O)[C@H](CC(N)=O)NC(=O)[C@@H]1CCCN1C(=O)[C@H](CO)NC(=O)[C@H](CO)NC(=O)[C@H](Cc1c[nH]cn1)NC(=O)[C@H](CCCNC(=N)N)NC(=O)[C@H](CC(C)C)NC(=O)[C@H](Cc1ccccc1)NC(=O)[C@H](Cc1c[nH]cn1)NC(=O)[C@H](C)NC(=O)[C@H](CC(C)C)NC(=O)[C@H](CCCNC(=N)N)NC(=O)[C@H](CCC(N)=O)NC(=O)[C@@H](NC(=O)[C@H](C)NC(=O)[C@@H]1CSSC[C@H](NC(=O)[C@@H](N)CCCCNC(=O)COCCOCCNC(=O)CC[C@H](NC(=O)CCCCCCCCCCCCCCCCCCC(=O)O)C(=O)O)C(=O)N[C@@H](CC(N)=O)C(=O)N[C@@H]([C@@H](C)O)C(=O)N[C@@H](C)C(=O)N[C@@H]([C@@H](C)O)C(=O)N1)[C@@H](C)O)C(=O)N1CCC[C@H]1C(=O)N[C@@H](CO)C(=O)N[C@@H](CO)C(=O)N[C@H](C(=O)N[C@@H](CC(N)=O)C(=O)N[C@H](C(=O)NCC(=O)N[C@@H](CCCNC(=N)N)C(=O)N[C@@H](CC(N)=O)C(=O)N[C@H](C(=O)N[C@@H](Cc1ccc(O)cc1)C(N)=O)[C@@H](C)O)C(C)C)[C@@H](C)O
notes: also called compound 84
B4: N^ε1-[2-[2-[2-[[(4S)-4-carboxy-4-(19-carboxynonadecanoylamino)butanoyl]amino]ethoxy]ethoxy]acetyl]-[Gly14,Arg17,Pro21,Pro27,Pro31]-h-amylin (peptide)
peptide: K([AEEA-γGlu-C20 diacid])CNTATCATQRLAGFLRHSSPNFGAIPSSTPVGSNTY-NH2
modifications: disulfide 2-7; N-terminus assumed
SMILES: CC[C@H](C)[C@H](NC(=O)[C@H](C)NC(=O)CNC(=O)[C@H](Cc1ccccc1)NC(=O)[C@H](CC(N)=O)NC(=O)[C@@H]1CCCN1C(=O)[C@H](CO)NC(=O)[C@H](CO)NC(=O)[C@H](Cc1c[nH]cn1)NC(=O)[C@H](CCCNC(=N)N)NC(=O)[C@H](CC(C)C)NC(=O)[C@H](Cc1ccccc1)NC(=O)CNC(=O)[C@H](C)NC(=O)[C@H](CC(C)C)NC(=O)[C@H](CCCNC(=N)N)NC(=O)[C@H](CCC(N)=O)NC(=O)[C@@H](NC(=O)[C@H](C)NC(=O)[C@@H]1CSSC[C@H](NC(=O)[C@@H](N)CCCCNC(=O)COCCOCCNC(=O)CC[C@H](NC(=O)CCCCCCCCCCCCCCCCCCC(=O)O)C(=O)O)C(=O)N[C@@H](CC(N)=O)C(=O)N[C@@H]([C@@H](C)O)C(=O)N[C@@H](C)C(=O)N[C@@H]([C@@H](C)O)C(=O)N1)[C@@H](C)O)C(=O)N1CCC[C@H]1C(=O)N[C@@H](CO)C(=O)N[C@@H](CO)C(=O)N[C@H](C(=O)N1CCC[C@H]1C(=O)N[C@H](C(=O)NCC(=O)N[C@@H](CO)C(=O)N[C@@H](CC(N)=O)C(=O)N[C@H](C(=O)N[C@@H](Cc1ccc(O)cc1)C(N)=O)[C@@H](C)O)C(C)C)[C@@H](C)O
notes: also called compound 71

One experiment concerns the target T1, human calcitonin receptor. The experiment in a line: SPA radioligand competition (125I-calcitonin), membranes of BHK cells with human calcitonin receptor. The procedure:
Membranes were prepared in the following way; the cells were rinsed with PBS and incubated with Versene for approximately 5 min before harvesting. The cells were flushed with PBS and the cell-suspension was centrifuged for 5 min at 1000 rpm. Cells were homogenized (Ultrathurrax) in a buffer containing 20 mM Na-HEPES and 10 mM EDTA (pH 7.4) and centrifuged at 20.000 rpm for 15 min. The resulting pellet was resuspended, homogenized and centrifuged (20.000 rpm, 15 min) in a buffer containing 20 mM Na-HEPES and 0.1 mM EDTA (pH 7.4, buffer 2). The resulting pellet was resuspended in buffer 2 and protein concentration was measured (BCA protein Assay, Pierce). The homogenate was kept cold during the whole procedure. The membranes were kept at −80° C. until use. Assay was performed in a 384 well Optiplate (PerkinElmer) in a total volume of 40 ul. Membranes were mixed with SPA beads. Final concentration of membranes 35 ng/μL final and Final concentration of SPA beads was 0.05 mg/well. Test-compounds were dissolved in DMSO and further diluted in assay buffer (50 mM Hepes, pH 7.4, 1 mM CaCl2, 5 mM MgCl₂, 0.1% OA and 0.02% Tween20). […] The final mixture was incubated for 120 min with shaking at 400 rpm at 25° C. prior to centrifugation (1500 rpm, 10 min). Samples were analyzed on TopCounter™ (Packard). The […] was calculated using (one site binding competition analysis) GraphPad Prism5 as a measure of receptor affinity.
(In general: In a radioligand displacement assay an active substance lowers the binding of a labelled ligand.)
In general, IC50 refers to the concentration that inhibits the measured activity by half. In the case of B1, the IC50 amounted to 36.5 nM.
B2: the IC50 is 19.8 nM.
For the molecule B3, the IC50 was 88.9 nM.
On the same count and under the same terms, the value for B4 was 1.53 nM.

The next experiment concerns the target T1, human calcitonin receptor. The experiment in a line: ratio of IC50 at human calcitonin receptor to IC50 at human amylin receptor (SPA competition assays). On the procedure:
The resulting pellet was resuspended, homogenized and centrifuged (20.000 rpm, 15 min) in a buffer containing 20 mM Na-HEPES and 0.1 mM EDTA (pH 7.4, buffer 2). The resulting pellet was resuspended in buffer 2 and protein concentration was measured (BCA protein Assay, Pierce). The homogenate was kept cold during the whole procedure. The membranes were kept at −80° C. until use. The assay was performed in a 384 well Optiplate (PerkinElmer) in a total volume of 40 ul. Membranes were mixed with SPA beads. Final concentration of membranes 35 ng/μL final and SPA beads was 0.05 mg/well. Test-compounds were dissolved in DMSO and further diluted in assay buffer (50 mM Hepes, pH 7.4, 1 mM CaCl2, 5 mM MgCl₂, 0.1% OA and 0.02% Tween20). […] The final mixture was incubated with shaking at 400 rpm for 120 min at 25° C. prior to centrifugation (1500 rpm, 10 min). Samples were analyzed on TopCounter™ (Packard). The IC₅₀ was calculated using (one site binding competition analysis) GraphPad Prism5 as a measure of receptor affinity.
Membranes were prepared in the following way; the cells were rinsed with PBS and incubated with Versene for approximately 5 min before harvesting. The cells were flushed with PBS and the cell-suspension was centrifuged for 5 min at 1000 rpm. Cells were homogenized (Ultrathurrax) in a buffer containing 20 mM Na-HEPES and 10 mM EDTA (pH 7.4) and centrifuged at 20.000 rpm for 15 min. The resulting pellet was resuspended, homogenized and centrifuged (20.000 rpm, 15 min) in a buffer containing 20 mM Na-HEPES and 0.1 mM EDTA (pH 7.4, buffer 2). The resulting pellet was resuspended in buffer 2 and protein concentration was measured (BCA protein Assay, Pierce). The homogenate was kept cold during the whole procedure. The membranes were kept at −80° C. until use. Assay was performed in a 384 well Optiplate (PerkinElmer) in a total volume of 40 ul. Membranes were mixed with SPA beads.
Regarding B1, the “Ratio hCT/hAmylin binding” value was determined as 60.7.
On the same count and under the same terms, the value for B2 was 68.1; that for B3 was 120.
Same read-out and setting: the value for B4 was 32.
